We go through three molecules from article PMC4918631 (Chembiochem : a European journal of chemical biology, 2016).

The target of this experiment is T1, SipD (residues 39-343, C244S) (Salmonella typhimurium strain SL1344, UniProt Q56026 39-343, C244S).
T1 sequence: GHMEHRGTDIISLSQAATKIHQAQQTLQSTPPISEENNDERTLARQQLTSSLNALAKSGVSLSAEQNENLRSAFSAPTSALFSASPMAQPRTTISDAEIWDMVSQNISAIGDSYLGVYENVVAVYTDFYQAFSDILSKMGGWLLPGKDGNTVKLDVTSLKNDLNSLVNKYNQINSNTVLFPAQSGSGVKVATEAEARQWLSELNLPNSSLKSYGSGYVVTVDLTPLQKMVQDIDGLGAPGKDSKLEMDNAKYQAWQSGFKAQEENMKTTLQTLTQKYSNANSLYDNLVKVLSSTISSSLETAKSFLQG
The experiment is described as follows: NMR paramagnetic relaxation enhancement.

B1: SipB^82-312 D207C, MTSL spin-labeled (domain or fragment)
chain: EGQLTLLLGKLMTLLGDVSLSQLESRLAVWQAMIESQKEMGIQVSKEFQTALGEAQEATDLYEASIKKTDTAKSVYDAATKKLTQAQNKLQSLDPADPGYAQAEAAVEQAGKEATEAKEALDKATCATVKAGTDAKAKAEKADNILTKFQGTANAASQNQVSQGEQDNLSNVARLTMLMAMFIEIVGKNTEESLQNDLALFNALQEGRQAEMEKKSAEFQEETRKAEETNR
modifications: MTSL nitroxide spin label on the engineered cysteine at 207
B1: the binding result is recorded as “binds”.

B2: SipB^82-312 Asn-283 cysteine mutant, MTSL spin-labeled (domain or fragment)
chain: EGQLTLLLGKLMTLLGDVSLSQLESRLAVWQAMIESQKEMGIQVSKEFQTALGEAQEATDLYEASIKKTDTAKSVYDAATKKLTQAQNKLQSLDPADPGYAQAEAAVEQAGKEATEAKEALDKATDATVKAGTDAKAKAEKADNILTKFQGTANAASQNQVSQGEQDNLSNVARLTMLMAMFIEIVGKNTEESLQNDLALFCALQEGRQAEMEKKSAEFQEETRKAEETNR
modifications: MTSL nitroxide spin label on the engineered cysteine at 283
Regarding B2, the binding result was “binds”.

B3: SipB^82-312 Lys-211 cysteine mutant, MTSL spin-labeled (domain or fragment)
chain: EGQLTLLLGKLMTLLGDVSLSQLESRLAVWQAMIESQKEMGIQVSKEFQTALGEAQEATDLYEASIKKTDTAKSVYDAATKKLTQAQNKLQSLDPADPGYAQAEAAVEQAGKEATEAKEALDKATDATVCAGTDAKAKAEKADNILTKFQGTANAASQNQVSQGEQDNLSNVARLTMLMAMFIEIVGKNTEESLQNDLALFNALQEGRQAEMEKKSAEFQEETRKAEETNR
modifications: MTSL nitroxide spin label on the engineered cysteine at 211
Regarding B3, the binding result is “binds”.
